This passage reports pKd results from article PMC9482650, “Quantitative fragmentomics allow affinity mapping of interactomes” (Nature Communications, 2022).

What all share (assay): holdup assay
Design in all cases: key: below the threshold = too weak to quantify, mostly under pKd 3.1 to 4

Assay [1] concerns the target GIPC2, Q8TF65. The note with it: plain residues with an end cap or a label only (N-terminal biotin on a linker: ado-ado).
In assay [2] the target is T1, PDZD7_3, Q9H5P4.
T1 sequence (Q9H5P4 857-944, limits assumed, looked up): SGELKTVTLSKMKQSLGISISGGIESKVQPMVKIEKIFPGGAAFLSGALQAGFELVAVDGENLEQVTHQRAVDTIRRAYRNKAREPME

Assay [3] concerns the target T2, DFNB31_1, Q9P202.
T2 sequence (Q9P202 135-233, limits assumed, looked up): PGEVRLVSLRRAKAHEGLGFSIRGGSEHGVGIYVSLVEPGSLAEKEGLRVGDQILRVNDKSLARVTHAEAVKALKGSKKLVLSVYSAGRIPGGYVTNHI

For assay [4], the target named is CASK, O14936.
For assay [5], the target named is T3, NHERF3_1, Q5T2W1.
T3 sequence (Q5T2W1 4-100, limits assumed, looked up): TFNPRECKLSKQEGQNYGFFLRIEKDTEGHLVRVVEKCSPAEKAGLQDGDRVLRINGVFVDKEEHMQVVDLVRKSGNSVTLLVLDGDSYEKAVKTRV

Assay [6] deals with T4, SIPA1L2, Q9P2F8.
T4 sequence (Q9P2F8 945-1036, limits assumed, looked up): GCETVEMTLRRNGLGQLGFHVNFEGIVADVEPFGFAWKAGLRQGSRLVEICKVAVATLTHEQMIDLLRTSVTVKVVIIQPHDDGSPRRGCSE

Assay [7] concerns the target T5, HTRA4, P83105.
T5 sequence (P83105 378-476, limits assumed, looked up): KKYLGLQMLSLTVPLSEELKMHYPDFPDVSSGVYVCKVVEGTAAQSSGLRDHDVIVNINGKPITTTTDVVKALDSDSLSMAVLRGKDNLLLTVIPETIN

For assay [8], the target named is MAST1, Q9Y2H9.
For assay [9], the target named is NHERF4_2, Q86UT5.
The target of assay [10] is Inadl_3, Q8NI35.
Assay [11] concerns the target T6, TIAM2, Q8IVF5.
T6 sequence (Q8IVF5 885-986, limits assumed, looked up): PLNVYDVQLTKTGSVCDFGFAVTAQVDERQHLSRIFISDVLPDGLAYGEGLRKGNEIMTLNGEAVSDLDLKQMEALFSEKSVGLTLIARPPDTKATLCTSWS

Assay [12] concerns the target T7, APBA1_2, Q02410.
T7 sequence (Q02410 742-832, limits assumed, looked up): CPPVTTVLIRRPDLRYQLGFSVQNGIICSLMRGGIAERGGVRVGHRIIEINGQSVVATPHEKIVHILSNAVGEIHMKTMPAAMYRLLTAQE

Assay [13] deals with T8, TJP3_3, O95049.
T8 sequence (O95049 375-456, limits assumed, looked up): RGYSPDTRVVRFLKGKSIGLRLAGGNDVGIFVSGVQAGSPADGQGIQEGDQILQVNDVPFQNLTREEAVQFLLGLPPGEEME

In assay [14] the target is DLG1_2, Q12959.
For assay [15], the target named is T9, DFNB31_2, Q9P202.
T9 sequence (Q9P202 274-371, limits assumed, looked up): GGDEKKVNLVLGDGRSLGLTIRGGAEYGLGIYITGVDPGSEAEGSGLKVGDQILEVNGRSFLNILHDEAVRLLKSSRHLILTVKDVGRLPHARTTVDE

The target of assay [16] is NHERF2_2, Q15599.
Assay [17] concerns the target GRIP2_6, Q9C0E4.
Assay [18] deals with T10, LRRC7, Q96NW7.
T10 sequence (Q96NW7 1440-1537, limits assumed, looked up): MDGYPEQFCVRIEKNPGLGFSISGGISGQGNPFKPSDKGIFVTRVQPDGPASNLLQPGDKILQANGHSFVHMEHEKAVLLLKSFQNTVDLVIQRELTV

Assay [19] concerns the target T11, APBA2_1, Q99767.
T11 sequence (Q99767 563-664, limits assumed, looked up): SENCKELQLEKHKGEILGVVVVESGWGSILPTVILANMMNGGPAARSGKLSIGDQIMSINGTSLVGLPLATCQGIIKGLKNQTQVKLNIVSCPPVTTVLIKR

In assay [20] the target is SCRIB_1, Q14160.
For assay [21], the target named is T12, LNX2_3, Q8N448.
T12 sequence (Q8N448 463-564, limits assumed, looked up): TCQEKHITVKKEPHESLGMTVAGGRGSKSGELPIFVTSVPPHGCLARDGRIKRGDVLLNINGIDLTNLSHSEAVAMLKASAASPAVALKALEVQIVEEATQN

The target in assay [22] is DLG1_1, Q12959.
Assay [23] addresses MAGI2_6, Q86UL8.
Assay [24] deals with DLG1_3, Q12959.
Assay [25] has as its target T13, GRIP1_5, Q9Y3R0.
T13 sequence (Q9Y3R0 568-668, limits assumed, looked up): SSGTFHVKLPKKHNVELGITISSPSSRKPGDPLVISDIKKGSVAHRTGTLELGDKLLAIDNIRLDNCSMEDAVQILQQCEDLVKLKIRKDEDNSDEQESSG

Where [26] appears, read: plain residues with an end cap or a label only (N-terminal biotin on a linker: ado-ado).
The mark [27] stands for this setting: modified: acetyl on K at position -1 from the C-terminal residue.

GRIP2_6, Q9C0E4, sequence (Q9C0E4 648-740): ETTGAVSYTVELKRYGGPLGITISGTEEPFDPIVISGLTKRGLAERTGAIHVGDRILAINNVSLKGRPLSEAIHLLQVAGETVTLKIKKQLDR
MAST1, Q9Y2H9, sequence (Q9Y2H9 962-1065): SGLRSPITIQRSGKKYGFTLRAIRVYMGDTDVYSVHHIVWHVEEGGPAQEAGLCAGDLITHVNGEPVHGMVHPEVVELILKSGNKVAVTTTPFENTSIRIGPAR
NHERF4_2, Q86UT5, sequence (Q86UT5 220-308): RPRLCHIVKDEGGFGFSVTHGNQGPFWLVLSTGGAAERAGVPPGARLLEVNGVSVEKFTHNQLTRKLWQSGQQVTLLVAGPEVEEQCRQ
SCRIB_1, Q14160, sequence (Q14160 718-814): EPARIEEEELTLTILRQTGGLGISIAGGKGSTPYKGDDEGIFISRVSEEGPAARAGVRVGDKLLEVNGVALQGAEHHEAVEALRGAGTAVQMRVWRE
MAGI2_6, Q86UL8, sequence (Q86UL8 1141-1229): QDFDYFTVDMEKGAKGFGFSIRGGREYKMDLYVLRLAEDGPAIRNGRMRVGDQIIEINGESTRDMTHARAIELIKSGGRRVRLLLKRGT
CASK, O14936, sequence (O14936 487-570): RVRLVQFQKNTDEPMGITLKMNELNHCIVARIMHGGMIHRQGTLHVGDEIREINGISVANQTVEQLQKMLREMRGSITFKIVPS
NHERF2_2, Q15599, sequence (Q15599 142-238): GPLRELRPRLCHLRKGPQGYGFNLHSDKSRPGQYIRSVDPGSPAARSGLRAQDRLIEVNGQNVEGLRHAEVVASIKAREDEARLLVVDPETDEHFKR
Inadl_3, Q8NI35, sequence (Q8NI35 359-469): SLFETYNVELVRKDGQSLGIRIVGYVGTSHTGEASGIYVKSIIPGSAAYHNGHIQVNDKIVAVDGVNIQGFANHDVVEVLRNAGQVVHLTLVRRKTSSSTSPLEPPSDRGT
GIPC2, Q8TF65, sequence (Q8TF65 112-203): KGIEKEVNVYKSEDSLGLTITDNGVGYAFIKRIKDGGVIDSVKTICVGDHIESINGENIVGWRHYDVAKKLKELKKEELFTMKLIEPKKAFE

B1: LSM14A, Q8ND56;Q8ND56-2 (peptide)
chain: EYRKDNKVAA
On to B1, for which the pKd result in assay [1], in [2] (setting [26]), in assay [3] (setting [26]), in assay [4] (setting [26]), in assay [5] (setting [26]) and in assay [6] (setting [26]) was “below the threshold” each time. For the same molecule, the pKd entry in assay [7] (setting [26]) is “below the threshold”; in assay [8] (setting [26]), “below the threshold”; in assay [9] (setting [26]), “below the threshold”; in assay [10] (setting [26]), “below the threshold”; in [11] (setting [26]), 4.1; in [12] (setting [26]) it was “below the threshold”. Also, the pKd entry in assay [13] (setting [26]), in assay [14] (setting [26]), in [15] (setting [26]), in [16] (setting [26]), in assay [17] (setting [26]) and in assay [18] (setting [26]) was “below the threshold” each time. Moreover, the negative logarithm of the Kd (pKd) entry in assay [19] (setting [26]), in assay [20] (setting [26]), in [21] (setting [26]), in assay [22] (setting [26]) and in assay [23] (setting [26]) was “below the threshold” throughout.

B2: PTEN_Ac, P60484 (peptide)
chain: DEDQHTQITKV
As to B2, the pKd was 5.82 in assay [2] (setting [27]); “below the threshold” in assay [24] (setting [27]); 3.68 in [3] (setting [27]); “below the threshold” in [4] (setting [27]); 4.16 in assay [5] (setting [27]); “below the threshold” in assay [6] (setting [27]). In addition, the pKd was 3.68 in [7] (setting [27]); 4.66 in [8] (setting [27]); “below the threshold” in assay [9] (setting [27]); “below the threshold” in assay [10] (setting [27]); “below the threshold” in assay [11] (setting [27]); 4.26 in assay [12] (setting [27]). Besides, the pKd entry was “below the threshold” in [13] (setting [27]); 4.67 in assay [14] (setting [27]); “below the threshold” in assay [25] (setting [27]); “below the threshold” in assay [15] (setting [27]); 3.77 in assay [16] (setting [27]); “below the threshold” in [17] (setting [27]). Further, the pKd entry in assay [18] (setting [27]) was “below the threshold”; in assay [19] (setting [27]), “below the threshold”; in [20] (setting [27]), 5.23; in assay [21] (setting [27]) it was “below the threshold”; in assay [22] (setting [27]), 4.15; in assay [23] (setting [27]) it was 4.57.

B3: NDE1, Q9NXR1;Q9NXR1-2 (peptide)
chain: KSTTRSSSSC
As for B3, the pKd entry was “below the threshold” in [24] (setting [26]); “below the threshold” in assay [3] (setting [26]); “below the threshold” in [4] (setting [26]); 3.91 in assay [5] (setting [26]); “below the threshold” in assay [6] (setting [26]); “below the threshold” in assay [7] (setting [26]). Further, the pKd result in assay [9] (setting [26]), in assay [10] (setting [26]), in [12] (setting [26]), in assay [13] (setting [26]), in [14] (setting [26]) and in assay [25] (setting [26]) was “below the threshold” in each case. Moreover, the pKd entry in [15] (setting [26]), in assay [16] (setting [26]), in assay [17] (setting [26]), in assay [18] (setting [26]), in assay [19] (setting [26]) and in assay [20] (setting [26]) was “below the threshold” in each case. Further, the pKd result in assay [21] (setting [26]), in [22] (setting [26]) and in assay [23] (setting [26]) was “below the threshold” each time.

B4: VAC14, Q08AM6 (peptide)
chain: GDHLDRRVVL
For the molecule B4, the pKd entry was “below the threshold” in assay [1]; 3.69 in assay [2] (setting [26]); “below the threshold” in assay [24] (setting [26]); “below the threshold” in assay [3] (setting [26]); “below the threshold” in assay [4] (setting [26]); “below the threshold” in assay [5] (setting [26]). The pKd entry was “below the threshold” in assay [6] (setting [26]); 3.92 in assay [7] (setting [26]); 4.17 in [8] (setting [26]); “below the threshold” in assay [9] (setting [26]); “below the threshold” in [10] (setting [26]); “below the threshold” in assay [11] (setting [26]). Further, the pKd result was “below the threshold” in [12] (setting [26]); “below the threshold” in assay [13] (setting [26]); 3.98 in [14] (setting [26]); “below the threshold” in assay [25] (setting [26]); 3.51 in assay [15] (setting [26]); “below the threshold” in assay [16] (setting [26]). Besides, the pKd entry in assay [17] (setting [26]), in assay [18] (setting [26]), in assay [19] (setting [26]), in [20] (setting [26]), in assay [21] (setting [26]) and in assay [22] (setting [26]) was “below the threshold” each time. In assay [23] (setting [26]), the pKd entry is recorded as “below the threshold”.
